B1: Noc1p (recombinant, untagged) (natural protein)
chain: MSENNGNPLDLSSLRNKISSKLRDNNSKKAKKTHKGKDVKASSNSKKVNEDIRREALALGASEEDLKLIQGLSDDDDAKSEQEFDAVADEDADDKGFKNDLQNFMKNVGFDQHKLEDVDDDDIEEESTSSKESKIPAQEKEHAQSNIASSTIEKTSQESIDNGSEQEENTVEEANLSSDQEPESESAEKEKKEEKDGGLITQTTIISSDKLIIPYDKPWYEIPLDPQVGQNDDVEELSKEQIEKLFERGKQTLEADNQTYYEEFTKDSSQAKFMSQILSDGTLNDKISAVTLLIQDSPLHNTKSLETLVSYCGKKSRNSALQSLNALKDLFLNGLLPNRKLRYFKNQPGLSMMLNKKTLAIFYFEDYLKKLFFRVLEVLEVLSHDPIIHVRLQILNHVFDLLTNQPEQEFNLLRLGVNKIGDIDSKVSSKASYLLLKLEQAHPNMKSIVIDAIVDIALRPNADYHTTYYSVITLNQTILKRSEDSVANKLVKTYFTLFEKFLINTDKDNTNGVVKSNSKSYEEKRKKNFKKGKHGGKSVKIEKTENEVLDEKNSKLFSALLTGINRAFPFAQIPASVYEVHMETLFKITHSSNFNTSIQALVLINQVTVKAKLNSDRYYRTLYESLFDPRLVNSSKQGIYLNLLYKSLKQDALNVERVEAFVKRILQVCSHWLNVGTITGFFFLLIQLAKTVPQIKNLLTNTPVDYEYESDAEEEQGDKDIKRKEYDGRKRDPKFANAEKSSLWEINNFINHFHPTVKTYANAYVTGETEQIAKPDLGLFTLSHFLDRFVYRSAKQTNTARGTSIMQPLFSGSRVNDSVLVKASDIMHDQGPVNTEDWLTKKVEDIKPEDKFFYQYFTTKKTADGKGKKSNKASNFDSDDEMDENEIWSALVKSRPDVEDDSDDSELDFAEDDFSDSTSDDEPKLDAIDDEDAKSEGSQESDQEEGLDEDIFYSFDGEQDNSDKKRSFAESSEEDESSEEEKEEEENKEVSAKRAKKKQRKNMLKSLPVFASADDYAQYLDQDSD

Columns and labels:
[1] = target: B1; assay: SEC
HA-Rrp5p = HA-Rrp5p (S. cerevisiae, UniProt Q05022 1-1729); assay: SEC
HA-Rrp5p, sequence (Q05022 whole entry): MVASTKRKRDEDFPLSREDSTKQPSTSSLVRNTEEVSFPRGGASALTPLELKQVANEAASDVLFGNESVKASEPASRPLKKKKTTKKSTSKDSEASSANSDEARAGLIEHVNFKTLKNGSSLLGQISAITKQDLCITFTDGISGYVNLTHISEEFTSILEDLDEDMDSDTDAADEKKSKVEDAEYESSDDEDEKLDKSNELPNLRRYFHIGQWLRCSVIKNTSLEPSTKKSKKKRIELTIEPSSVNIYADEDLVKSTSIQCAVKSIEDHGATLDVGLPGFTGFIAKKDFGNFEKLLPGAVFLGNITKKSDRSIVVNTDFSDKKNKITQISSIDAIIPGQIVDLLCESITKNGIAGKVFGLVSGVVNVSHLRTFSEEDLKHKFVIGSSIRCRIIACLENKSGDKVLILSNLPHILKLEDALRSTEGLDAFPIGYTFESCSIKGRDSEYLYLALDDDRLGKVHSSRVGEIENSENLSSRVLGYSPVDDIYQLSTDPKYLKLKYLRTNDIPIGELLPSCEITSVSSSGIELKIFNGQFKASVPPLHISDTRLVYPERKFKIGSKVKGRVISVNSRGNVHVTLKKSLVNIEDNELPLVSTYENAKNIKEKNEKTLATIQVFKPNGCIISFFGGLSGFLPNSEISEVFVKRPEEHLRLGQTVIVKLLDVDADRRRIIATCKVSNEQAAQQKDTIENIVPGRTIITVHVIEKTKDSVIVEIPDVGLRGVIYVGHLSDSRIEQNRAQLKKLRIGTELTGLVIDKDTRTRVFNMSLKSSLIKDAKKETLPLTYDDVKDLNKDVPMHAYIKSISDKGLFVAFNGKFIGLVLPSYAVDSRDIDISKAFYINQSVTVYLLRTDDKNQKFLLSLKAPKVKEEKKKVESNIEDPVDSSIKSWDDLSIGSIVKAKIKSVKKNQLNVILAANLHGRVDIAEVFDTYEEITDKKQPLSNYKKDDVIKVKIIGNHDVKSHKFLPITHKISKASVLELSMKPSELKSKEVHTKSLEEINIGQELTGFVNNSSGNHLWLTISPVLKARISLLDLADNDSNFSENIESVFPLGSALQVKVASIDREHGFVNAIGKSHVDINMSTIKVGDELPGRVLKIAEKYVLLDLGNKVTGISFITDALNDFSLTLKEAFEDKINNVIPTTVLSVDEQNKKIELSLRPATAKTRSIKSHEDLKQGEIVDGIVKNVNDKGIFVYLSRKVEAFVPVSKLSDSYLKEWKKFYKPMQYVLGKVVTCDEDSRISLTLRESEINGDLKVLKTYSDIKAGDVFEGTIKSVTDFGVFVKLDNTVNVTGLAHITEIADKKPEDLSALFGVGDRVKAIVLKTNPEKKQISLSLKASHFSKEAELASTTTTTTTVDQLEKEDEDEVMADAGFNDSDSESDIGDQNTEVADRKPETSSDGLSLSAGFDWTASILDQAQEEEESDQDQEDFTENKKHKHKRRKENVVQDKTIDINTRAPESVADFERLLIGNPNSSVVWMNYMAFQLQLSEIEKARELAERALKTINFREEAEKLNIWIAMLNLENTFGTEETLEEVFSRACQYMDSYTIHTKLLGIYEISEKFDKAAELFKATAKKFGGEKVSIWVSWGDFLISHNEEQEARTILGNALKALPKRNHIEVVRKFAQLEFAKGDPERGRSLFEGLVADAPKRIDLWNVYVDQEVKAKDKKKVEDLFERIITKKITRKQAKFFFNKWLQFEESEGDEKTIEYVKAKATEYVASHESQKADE

binding result [1]	binding result (HA-Rrp5p)	Binder
binds	–	Flag-Noc2p (natural protein) MGKVSKSTKKFQSKHLKHTLDQRRKEKIQKKRIQGRRGNKTDQEKADAAGTREQQQLKKSAKEEVFKDMSVETFFEKGIEIPKENKKLKKKTTKEQSDEDSSSSEEEEDMGQSMAKLAEKDPEFYKYLEENDKDLLDFAGTNPLDGIDSQDEGEDAERNSNIEEKSEQMELEKEKIELSLKLVRKWKKQLHDSPSLKLLRNIISAFKVAVNLNKEENIEDYKYAITDEKAFHELMFMVLKDVPQAIQKMAPYKIVKGARTLPNGGNVSRVSSIVKSHAGSLLILLNDITNTETAALVLHSVNELMPYLLSYRRILKELIKSIVGVWSTTRELETQIASFAFLINTTKEFKKSMLETTLKTTYSTFIKSCRKTNMRSMPLINFQKNSAAELFGIDEVLGYQVGFEYIRQLAIHLRNTMNATTKKSSKINSAEAYKIVYNWQFCHSLDFWSRVLSFACQPEKENGSESPLRQLIYPLVQVTLGVIRLIPTPQFFPLRFYLIKSLIRLSQNSGVFIPIYPLLSEILTSTAFTKAPKKSPNLAAFDFEHNIKCTQAYLNTKIYQEGLSEQFVDLLGDYFALYCKNIAFPELVTPVIISLRRYIKTSTNVKLNKRLSTVVEKLNQNSTFIQEKRSDVEFGPTNKSEVSRFLNDVAWNKTPLGSYVAVQREVKEEKARLMRESMEEQDKERETEEAKLLNSLESDDDNEDVEMSDA
–	binds	B1

Source: publication PMC3553968 (Nucleic Acids Research, 2012)
